Blank lines part the entries; values can stand above or below the binder they belong to.
Columns and labels:
Details in all cases: both partners purified
[1] = target: T1, full-length human P97/VCP (Valosin-Containing Protein) (human, UniProt P55072 1-806); experiment: pull-down; MBP pull-down, SNARE complex held by MBP-syntaxin5; P97/VCP-P47 without or with VCPIP1 WT or Y623E/F638E added (VCPIP1 WT enhanced, the double mutant did not)
T1 construct: P97/VCP (valosin-containing protein), human, full length; Cloned into pRSF-32 M (N-terminal thioredoxin and 6xHis) or pET-28a; source: E. coli BL21 (DE3), purified (Ni-NTA, size exclusion chromatography)

[2] = target: T2, Syntaxin5 (STX5) contained SNARE complex (syntaxin-5, GOSR1, Ykt6, Bet1, without transmembrane domains) (human, UniProt Q13190 55-330; O95249 150-230; O15498 1-193; O15155 1-93); experiment: as above
T2 construct: syntaxin-5, human, residues 55-330; GosR1, human, residues 150-230; Ykt6, human, residues 1-193; Bet1, human, residues 1-93; also called intact SNARE complex; SNARE substrate; source: E. coli BL21 (DE3), pellets mixed and lysed together, purified (amylose resin, size exclusion chromatography); not shown: MBP, N-terminal, kept; copies: + + +
T2 sequence (looked up) 1: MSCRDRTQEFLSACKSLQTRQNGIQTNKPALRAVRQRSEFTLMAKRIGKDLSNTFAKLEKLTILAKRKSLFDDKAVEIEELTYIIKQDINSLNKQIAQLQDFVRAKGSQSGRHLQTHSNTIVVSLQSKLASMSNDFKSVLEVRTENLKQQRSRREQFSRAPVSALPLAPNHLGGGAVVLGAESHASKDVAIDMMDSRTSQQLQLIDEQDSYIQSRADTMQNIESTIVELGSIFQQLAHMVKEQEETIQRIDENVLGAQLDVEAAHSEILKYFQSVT
T2 sequence (looked up) 2: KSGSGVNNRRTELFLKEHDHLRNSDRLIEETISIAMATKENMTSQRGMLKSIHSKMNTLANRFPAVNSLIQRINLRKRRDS
T2 sequence (looked up) 3: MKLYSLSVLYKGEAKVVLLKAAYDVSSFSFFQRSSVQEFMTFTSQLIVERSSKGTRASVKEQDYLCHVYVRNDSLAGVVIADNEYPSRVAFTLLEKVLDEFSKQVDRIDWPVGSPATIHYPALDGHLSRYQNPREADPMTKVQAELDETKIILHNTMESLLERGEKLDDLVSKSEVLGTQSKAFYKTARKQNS
T2 sequence (looked up) 4: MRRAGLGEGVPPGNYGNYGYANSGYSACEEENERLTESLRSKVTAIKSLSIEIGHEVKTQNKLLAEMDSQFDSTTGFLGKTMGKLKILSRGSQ

[3] = target: T1, full-length human P97/VCP …; experiment: pull-down; 50 µg GST-tagged VCPIP1 protein held on glutathione Sepharose 4B, full-length P97/VCP at molar ratio 1:3; 20 mM Tris pH 7.5, 100 mM NaCl, 1 mM DTT; Coomassie staining
[4] = target: T3, N-terminal region of VCPIP1 (residues 40-464) (human, UniProt Q96JH7 40-464); experiment: SEC; gel filtration co-migration of purified fragments, fractions on SDS-PAGE with Coomassie staining
T3 construct: VCPIP1, human, N-terminal region with the OTU domain, residues 40-464; also called N-terminal OTU domain (residues 40-464); source: E. coli BL21 (DE3) (said of the recombinant proteins in general), purified
T3 sequence (looked up): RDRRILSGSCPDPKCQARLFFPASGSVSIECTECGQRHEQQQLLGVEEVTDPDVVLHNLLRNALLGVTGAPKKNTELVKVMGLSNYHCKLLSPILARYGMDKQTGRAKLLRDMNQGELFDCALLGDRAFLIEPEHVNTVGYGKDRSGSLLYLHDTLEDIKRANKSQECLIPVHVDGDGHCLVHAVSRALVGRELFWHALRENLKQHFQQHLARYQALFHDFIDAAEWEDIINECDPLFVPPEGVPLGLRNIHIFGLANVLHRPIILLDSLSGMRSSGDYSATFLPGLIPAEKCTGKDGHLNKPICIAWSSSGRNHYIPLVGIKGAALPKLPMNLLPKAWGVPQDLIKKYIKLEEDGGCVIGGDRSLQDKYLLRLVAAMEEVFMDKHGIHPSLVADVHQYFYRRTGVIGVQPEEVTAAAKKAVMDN

- binding result [1]: binds
- binding result [2]: binds
B1: full-length human P47 (natural protein, UniProt Q9UNZ2 1-370, looked up)
chain: MAAERQEALREFVAVTGAEEDRARFFLESAGWDLQIALASFYEDGGDEDIVTISQATPSSVSRGTAPSDNRVTSFRDLIHDQDEDEEEEEGQRFYAGGSERSGQQIVGPPRKKSPNELVDDLFKGAKEHGAVAVERVTKSPGETSKPRPFAGGGYRLGAAPEEESAYVAGEKRQHSSQDVHVVLKLWKSGFSLDNGELRSYQDPSNAQFLESIRRGEVPAELRRLAHGGQVNLDMEDHRDEDFVKPKGAFKAFTGEGQKLGSTAPQVLSTSSPAQQAENEAKASSSILIDESEPTTNIQIRLADGGRLVQKFNHSHRISDIRLFIVDARPAMAATSFILMTTFPNKELADESQTLKEANLLNAVIVQRLT
notes: P47 (adaptor of P97/VCP), human, full length; Cloned into pRSF-32 M or pET-28a; source: E. coli BL21 (DE3), purified (Ni-NTA, size exclusion chromatography)

- binding result [3]: binds
B2: GST-VCPIP1 F3 fragment (IDR2-UBL-UFD2) (domain or fragment, human, UniProt Q96JH7 680-1000, looked up)
chain: QGQESESQLPTKIILTGQKTKTLHKEELNMSKTERTIQQNITEQASVMQKRKTEKLKQEQKGQPRTVSPSTIRDGPSSAPATPTKAPYSPTTSKEKKIRITTNDGRQSMVTLKSSTTFFELQESIAREFNIPPYLQCIRYGFPPKELMPPQAGMEKEPVPLQHGDRITIEILKSKAEGGQSAAAHSAHTVKQEDIAVTGKLSSKELQEQAEKEMYSLCLLATLMGEDVWSYAKGLPHMFQQGGVFYSIMKKTMGMADGKHCTFPHLPGKTFVYNASEDRLELCVDAAGHFPIGPDVEDLVKEAVSQVRAEATTRSRESSPS
notes: VCPIP1, human, residues 680-1000; pGEX-6P-1 vector; source: E. coli BL21 (DE3), purified (glutathione Sepharose 4B, size exclusion chromatography); not shown: GST, N-terminal, kept

- binding result [4]: binds
B3: C-terminal tail of P97/VCP (residues 765-806) (domain or fragment, human, UniProt P55072 765-806, looked up)
chain: SRGFGSFRFPSGNQGGAGPSQGSGGGTGGSVYTEDNDDDLYG
notes: P97/VCP, human, C-terminal tail, residues 765-806; also called P97/VCP tail; source: E. coli BL21 (DE3) (said of the recombinant proteins in general), purified

- binding result [3]: binds
B4: GST-VCPIP1 F1 fragment (IDR1-OTU) (domain or fragment, human, UniProt Q96JH7 1-464, looked up)
chain: MSQPPPPPPPLPPPPPPPEAPQTPSSLASAAASGGLLKRRDRRILSGSCPDPKCQARLFFPASGSVSIECTECGQRHEQQQLLGVEEVTDPDVVLHNLLRNALLGVTGAPKKNTELVKVMGLSNYHCKLLSPILARYGMDKQTGRAKLLRDMNQGELFDCALLGDRAFLIEPEHVNTVGYGKDRSGSLLYLHDTLEDIKRANKSQECLIPVHVDGDGHCLVHAVSRALVGRELFWHALRENLKQHFQQHLARYQALFHDFIDAAEWEDIINECDPLFVPPEGVPLGLRNIHIFGLANVLHRPIILLDSLSGMRSSGDYSATFLPGLIPAEKCTGKDGHLNKPICIAWSSSGRNHYIPLVGIKGAALPKLPMNLLPKAWGVPQDLIKKYIKLEEDGGCVIGGDRSLQDKYLLRLVAAMEEVFMDKHGIHPSLVADVHQYFYRRTGVIGVQPEEVTAAAKKAVMDN
notes: VCPIP1, human, residues 1-464 (methods); the results print 1-465; pGEX-6P-1 vector; source: E. coli BL21 (DE3), purified (glutathione Sepharose 4B, size exclusion chromatography); not shown: GST, N-terminal, kept

— article PMC11538695 (Advanced Science, 2024)
